Patent US20020028202A1 (Biogen, published 2002)

Experiments:
Test in all cases: staining of transfected COS-7 cells, FACS
[1] = molecular target: T1, human gc chain mutant, LYQ replaced by Ala (Domain 1 Loop EF), myc-tagged, on COS-7 cells (human, UniProt P31785 23-369)
T1 construct: whole, on cells; not shown: 9 amino acid myc tag at the 5' end of the construct
T1 sequence (looked up): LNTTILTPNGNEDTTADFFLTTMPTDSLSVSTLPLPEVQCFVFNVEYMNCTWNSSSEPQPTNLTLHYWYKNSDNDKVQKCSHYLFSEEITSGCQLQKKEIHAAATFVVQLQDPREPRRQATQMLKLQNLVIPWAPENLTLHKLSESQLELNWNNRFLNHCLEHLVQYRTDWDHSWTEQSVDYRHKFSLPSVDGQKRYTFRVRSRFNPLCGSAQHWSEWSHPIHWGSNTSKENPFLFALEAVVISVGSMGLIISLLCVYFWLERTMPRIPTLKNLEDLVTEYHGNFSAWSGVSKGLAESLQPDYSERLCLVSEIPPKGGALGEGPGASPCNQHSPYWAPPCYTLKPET
Protocol: (§1) COS-7 cells are transiently transfected with 20 ug of DNA encoding the gc chain mutant or wildtype cDNA and 180 ug of herring sperm carrier DNA. After 2-3 days, COS-7 cells are harvested and analyzed by immnunofluorescent staining with anti-gc chain mAbs. MAbs are used at 10 ug/ml in PBS-1% BSA-0.02% sodium azide and allowed 30 minutes to bind to 1×10⁶ COS-7 cells. Cells are then washed 2 times, and bound mAb is detected with PE-conjugated goat anti-mouse Fc specific antibodies. The % of positive cells staining with the anti-gc chain mAb over an irrelevant control Ig is determined for a given gc chain mutant and for wildtype gc chain. […] Data are adjusted for any differences in level of expression of a mutant vs. wildtype constructs by measuring the binding of a mAb specific for a 9 amino acid myc tag engineered at the 5′ end of each gc chain construct. […] Values reduced from 100% indicate amino acid mutations which affect mAb binding.
(§2) The value “100%” indicates no effect of mutation and lower percentages indicate greater losses in binding as a result of the sequence change.

[2] = molecular target: T2, human gc chain mutant, PW replaced by Ala (interdomain residues), myc-tagged, on COS-7 cells (human, UniProt P31785 23-369)
T2 construct: whole, on cells; not shown: 9 amino acid myc tag at the 5' end of the construct
T2 sequence (looked up): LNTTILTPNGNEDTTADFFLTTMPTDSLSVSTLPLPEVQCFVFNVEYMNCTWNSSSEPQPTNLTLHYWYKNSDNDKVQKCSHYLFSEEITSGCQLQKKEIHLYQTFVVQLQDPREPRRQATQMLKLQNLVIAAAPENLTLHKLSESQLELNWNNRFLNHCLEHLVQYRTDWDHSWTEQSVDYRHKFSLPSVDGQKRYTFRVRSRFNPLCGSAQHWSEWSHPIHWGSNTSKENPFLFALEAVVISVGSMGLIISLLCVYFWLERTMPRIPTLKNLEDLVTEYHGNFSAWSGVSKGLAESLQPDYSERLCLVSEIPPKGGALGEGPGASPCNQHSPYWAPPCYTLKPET
Protocol: as §1, §2

[3] = molecular target: T3, human gc chain mutant, FNV replaced by Ala (Domain 1 Loop AB), myc-tagged, on COS-7 cells (human, UniProt P31785 23-369)
T3 construct: whole, on cells; not shown: 9 amino acid myc tag at the 5' end of the construct
T3 sequence (looked up): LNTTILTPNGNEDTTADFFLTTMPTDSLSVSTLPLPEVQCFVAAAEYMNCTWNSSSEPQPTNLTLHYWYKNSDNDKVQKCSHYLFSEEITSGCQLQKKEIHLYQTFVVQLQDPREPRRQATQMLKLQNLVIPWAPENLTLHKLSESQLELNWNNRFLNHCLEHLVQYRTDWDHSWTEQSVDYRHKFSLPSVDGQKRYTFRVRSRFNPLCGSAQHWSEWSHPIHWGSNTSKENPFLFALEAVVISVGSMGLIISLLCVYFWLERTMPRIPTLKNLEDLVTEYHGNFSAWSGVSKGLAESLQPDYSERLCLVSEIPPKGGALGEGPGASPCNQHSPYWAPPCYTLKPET
Protocol: as §1, §2

[4] = molecular target: T4, human gc chain mutant, LSE replaced by Ala (Domain 2 Loop AB), myc-tagged, on COS-7 cells (human, UniProt P31785 23-369)
T4 construct: whole, on cells; not shown: 9 amino acid myc tag at the 5' end of the construct
T4 sequence (looked up): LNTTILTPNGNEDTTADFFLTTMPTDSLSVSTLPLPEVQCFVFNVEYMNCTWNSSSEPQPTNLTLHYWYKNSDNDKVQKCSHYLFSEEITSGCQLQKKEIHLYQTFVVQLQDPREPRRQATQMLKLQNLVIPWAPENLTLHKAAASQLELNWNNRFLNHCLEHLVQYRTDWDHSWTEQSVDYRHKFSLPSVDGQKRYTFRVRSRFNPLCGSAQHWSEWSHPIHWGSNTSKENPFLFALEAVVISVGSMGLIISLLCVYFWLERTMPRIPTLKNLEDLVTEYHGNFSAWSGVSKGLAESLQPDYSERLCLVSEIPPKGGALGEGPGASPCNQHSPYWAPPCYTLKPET
Protocol: as §1, §2

[5] = molecular target: T5, human gc chain mutant, IHL replaced by Ala (Domain 1 Loop EF), myc-tagged, on COS-7 cells (human, UniProt P31785 23-369)
T5 construct: whole, on cells; not shown: 9 amino acid myc tag at the 5' end of the construct
T5 sequence (looked up): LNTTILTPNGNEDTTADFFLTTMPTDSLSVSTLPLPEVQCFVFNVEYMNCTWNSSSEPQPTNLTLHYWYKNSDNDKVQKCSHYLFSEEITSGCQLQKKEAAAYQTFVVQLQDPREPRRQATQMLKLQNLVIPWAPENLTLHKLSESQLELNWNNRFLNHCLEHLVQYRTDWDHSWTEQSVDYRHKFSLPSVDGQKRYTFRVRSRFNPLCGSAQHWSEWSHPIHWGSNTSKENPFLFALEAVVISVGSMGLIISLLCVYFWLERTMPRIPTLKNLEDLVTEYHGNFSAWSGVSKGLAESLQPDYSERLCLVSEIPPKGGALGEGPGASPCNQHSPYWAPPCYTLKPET
Protocol: as §1, §2

[6] = molecular target: T6, human gc chain mutant, LEH replaced by Ala (Domain 2 Loop BC), myc-tagged, on COS-7 cells (human, UniProt P31785 23-369)
T6 construct: whole, on cells; not shown: 9 amino acid myc tag at the 5' end of the construct
T6 sequence (looked up): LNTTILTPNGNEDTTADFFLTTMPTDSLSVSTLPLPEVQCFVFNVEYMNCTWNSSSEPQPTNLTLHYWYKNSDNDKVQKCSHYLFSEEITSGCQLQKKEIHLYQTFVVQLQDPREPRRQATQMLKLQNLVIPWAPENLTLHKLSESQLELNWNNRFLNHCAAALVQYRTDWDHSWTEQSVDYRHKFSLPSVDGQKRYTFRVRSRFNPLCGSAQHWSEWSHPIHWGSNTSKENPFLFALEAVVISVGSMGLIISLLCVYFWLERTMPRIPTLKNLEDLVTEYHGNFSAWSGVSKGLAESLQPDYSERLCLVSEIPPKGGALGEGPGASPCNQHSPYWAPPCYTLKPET
Protocol: as §1, §2

B1: CP.B8 monoclonal antibody (murine anti-human gc chain, hybridoma ATCC HB-12107) (antibody, V domains shown)
VH: LQESGPGLVAPSQSLSITCTVSGFSLTSYGVHWVRQPPGKGLEWLGVIWAGGSTNYNSALMSRLNINRDNSKSQIFLKMNSLQTDDTAIYYCAREGSTVDSMDYWGQGTTVT
VL: DIVMTQSHKFMSTSVGDSITITCKASQDVTTAVAWYQQKPGQSPKLLIYWASTRHTGVPDRFTGSGSGTDYTLTISSVQAEDLALYYCQQHYITPWTFGGGTKLEI
notes: Used unconjugated and biotin-conjugated; also called CP.B8 mAb; mAb CP.B8
- % binding to mutant gc chain/wildtype gc chain [1]: 13%
- % binding to mutant gc chain/wildtype gc chain [2]: 73%
- % binding to mutant gc chain/wildtype gc chain [3]: 9%
- % binding to mutant gc chain/wildtype gc chain [4]: 90%
- % binding to mutant gc chain/wildtype gc chain [5]: 0%
- % binding to mutant gc chain/wildtype gc chain [6]: 0%
